Publication doi:10.1101/2020.11.22.393603 (bioRxiv, 2020)

Assays:
[1] = target: T1, full-length recombinant GLK1 (Arabidopsis thaliana, UniProt Q9SIV3 1-420); assay: SEC
T1 sequence (looked up): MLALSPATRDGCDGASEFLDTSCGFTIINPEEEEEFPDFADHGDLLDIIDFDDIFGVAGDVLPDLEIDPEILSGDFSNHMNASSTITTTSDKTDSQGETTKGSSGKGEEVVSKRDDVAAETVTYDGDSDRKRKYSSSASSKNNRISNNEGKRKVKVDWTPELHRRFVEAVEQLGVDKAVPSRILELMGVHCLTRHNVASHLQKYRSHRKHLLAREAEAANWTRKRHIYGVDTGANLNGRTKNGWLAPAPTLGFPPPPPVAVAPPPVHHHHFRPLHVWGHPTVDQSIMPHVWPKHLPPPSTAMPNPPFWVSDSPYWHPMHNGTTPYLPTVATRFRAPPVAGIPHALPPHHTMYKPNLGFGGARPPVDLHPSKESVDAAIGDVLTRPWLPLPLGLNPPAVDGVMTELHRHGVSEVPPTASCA

[2] = target: T2, full-length recombinant GLK2 (Arabidopsis thaliana, UniProt Q9FFH0 1-386); assay: SEC
T2 sequence (looked up): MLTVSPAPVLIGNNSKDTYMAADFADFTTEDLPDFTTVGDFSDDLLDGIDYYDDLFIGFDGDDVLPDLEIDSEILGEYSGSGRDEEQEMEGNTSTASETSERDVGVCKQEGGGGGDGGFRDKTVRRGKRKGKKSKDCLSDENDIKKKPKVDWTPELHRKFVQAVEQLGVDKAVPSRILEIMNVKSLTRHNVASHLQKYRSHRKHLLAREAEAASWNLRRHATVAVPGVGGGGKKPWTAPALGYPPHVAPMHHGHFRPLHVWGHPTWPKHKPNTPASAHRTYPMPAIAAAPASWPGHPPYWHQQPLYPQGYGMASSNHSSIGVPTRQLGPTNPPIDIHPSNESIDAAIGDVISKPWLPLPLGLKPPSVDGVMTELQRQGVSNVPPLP

binding result [1]: binds
binding result [2]: binds
B1: full-length recombinant LSD1 (natural protein, Arabidopsis thaliana, UniProt P94077 1-189, looked up)
chain: MKVADMQDQLVCHGCRNLLMYPRGASNVRCALCNTINMVPPPPPPHDMAHIICGGCRTMLMYTRGASSVRCSCCQTTNLVPAHSNQVAHAPSSQVAQINCGHCRTTLMYPYGASSVKCAVCQFVTNVNMSNGRVPLPTNRPNGTACPPSTSTSTPPSQTQTVVVENPMSVDESGKLVSNVVVGVTTDKK
